Results from the supplement of paper PMC5998384.

What was measured:
[1] = system: HeLa Kyoto; assay: melting temperature (median over replicates), in situ; higher = more thermally stable
[2] = system: HeLa Kyoto; assay: solubility in G1/S (NP-40 vs SDS abundance) (log2 ratio); higher = more soluble; conditions: cell cycle stage: G1/S
[3] = system: HeLa Kyoto; assay: thermal stability score vs G1/S (z-score of summed log2 fold changes over temperatures); higher = more thermally stable than in G1/S
[4] = system: HeLa Kyoto; assay: solubility change mitosis vs G1/S (difference of NP-40 vs SDS log2 ratios) (log2 ratio difference); higher = more soluble in mitosis
[5] = cell cycle stage: early G1 (4.5 h after nocodazole release)
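Throughout, for melting temperature (median over replicates), in situ: HeLa Kyoto cells synchronized by double thymidine or nocodazole block, proteins quantified by TMT10plex mass spectrometry, three independent biological replicates.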
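Throughout, for solubility change mitosis vs G1/S (difference of NP-40 vs SDS log2 ratios): synchronized HeLa Kyoto cells (double thymidine block for G1/S, nocodazole release for mitosis), protein amounts in NP-40 versus SDS lysates quantified by mass spectrometry, three biological replicates.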
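Throughout, for solubility in G1/S (NP-40 vs SDS abundance): HeLa Kyoto cells arrested at G1/S by double thymidine block, proteins quantified by TMT10plex mass spectrometry in mild NP-40 versus SDS extracts, three biological replicates.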
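Throughout, for thermal stability score vs G1/S (z-score of summed log2 fold changes over temperatures): synchronized HeLa Kyoto cells, proteins quantified by TMT10plex mass spectrometry, three biological replicates, mitosis taken 0.5 h after nocodazole release, G1/S directly after double thymidine block.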

## MAAPMLRWGCRGRRWAFARVDGGSCHRRGAPTGSTSNQIRGESSVAQQPLHTAQKTRKGEHKWAAVVGLEIHAQISSNSKLFSGSQVRFSAPPNSLVSFFDASLPGTLPVLNRRCVEAAVMTGLALNCHINKKSLFDRKHYFYADLPAGYQITQQRLPIAVNGSLIYGVCAGKKQSQVIPKTVRIKQIQLEQDSGKSLHDNLRSQTLIDLNRAGVGLLEVVLEPDMSCGEEAATAVRELQLILQALGTSQANMAEGQLRVDANISVHHPGEPLGVRTEVKNLNSIRFLAKAIDYEIQRQINELENGGEILNETRSFHHKLGCTMSMRDKEGKQDYRFMPEPNLPPLVLYDATSLPAGADPQQVINIDQIRETLPELPSVTREKLVQQYGMLLEHSFTLLNEVGLLEFFQNVIKETRAEPKKVTSWVLNTFLGYLKQQNLAVSESPVTPSALAELLDLLDSRTISSSAAKQVFEELWKREGKTPGQIVSEKQLELMQDQGALEQLCHSVMEAHPQVVMDVKNRNPRAINKLIGLVRKATQSRADPVMIKEILEKKLSL [GATB]
[1]; cell cycle stage: G1/S
  melting temperature: 48.3 °C
[1]; cell cycle stage: mitosis
  melting temperature: 48.7 °C
[2]
  solubility in G1/S (log2): 0.473
[3]; [5]
  thermal stability score: -0.148
[3]; cell cycle stage: mitosis
  thermal stability score: 0.829
[4]
  solubility change mitosis (log2): -0.154

## MAAPPARADADPSPTSPPTARDTPGRQAEKSETACEDRSNAESLDRLLPPVGTGRSPRKRTTSQCKSEPPLLRTSKRTIYTAGRPPWYNEHGTQSKEAFAIGLGGGSASGKTTVARMIIEALDVPWVVLLSMDSFYKVLTEQQQEQAAHNNFNFDHPDAFDFDLIISTLKKLKQGKSVKVPIYDFTTHSRKKDWKTLYGANVIIFEGIMAFADKTLLELLDMKIFVDTDSDIRLVRRLRRDISERGRDIEGVIKQYNKFVKPSFDQYIQPTMRLADIVVPRGSGNTVAIDLIVQHVHSQLEERELSVRAALASAHQCHPLPRTLSVLKSTPQVRGMHTIIRDKETSRDEFIFYSKRLMRLLIEHALSFLPFQDCVVQTPQGQDYAGKCYAGKQITGVSILRAGETMEPALRAVCKDVRIGTILIQTNQLTGEPELHYLRLPKDISDDHVILMDCTVSTGAAAMMAVRVLLDHDVPEDKIFLLSLLMAEMGVHSVAYAFPRVRIITTAVDKRVNDLFRIIPGIGNFGDRYFGTDAVPDGSDEEEVAYTG [UCKL1]
[1]; cell cycle stage: G1/S
  melting temperature: 51.6 °C
[1]; cell cycle stage: mitosis
  melting temperature: 51.6 °C
[2]
  solubility in G1/S (log2): -0.0507
[3]; [5]
  thermal stability score: -1.2
[3]; cell cycle stage: mitosis
  thermal stability score: -0.843
[4]
  solubility change mitosis (log2): 0.0371

## MAAPPEPGEPEERKSLKLLGFLDVENTPCARHSILYGSLGSVVAGFGHFLFTSRIRRSCDVGVGGFILVTLGCWFHCRYNYAKQRIQERIAREEIKKKILYEGTHLDPERKHNGSSSN [COX20]
[1]; cell cycle stage: G1/S
  melting temperature: 55.3 °C
[1]; cell cycle stage: mitosis
  melting temperature: 58 °C
[2]
  solubility in G1/S (log2): 0.0379
[3]; [5]
  thermal stability score: -0.338
[3]; cell cycle stage: mitosis
  thermal stability score: -1.53
[4]
  solubility change mitosis (log2): -0.0179

## MAAPRVFPLSCAVQQYAWGKMGSNSEVARLLASSDPLAQIAEDKPYAELWMGTHPRGDAKILDNRISQKTLSQWIAENQDSLGSKVKDTFNGNLPFLFKVLSVETPLSIQAHPNKELAEKLHLQAPQHYPDANHKPEMAIALTPFQGLCGFRPVEEIVTFLKKVPEFQFLIGDEAATHLKQTMSHDSQAVASSLQSCFSHLMKSEKKVVVEQLNLLVKRISQQAAAGNNMEDIFGELLLQLHQQYPGDIGCFAIYFLNLLTLKPGEAMFLEANVPHAYLKGDCVECMACSDNTVRAGLTPKFIDVPTLCEMLSYTPSSSKDRLFLPTRSQEDPYLSIYDPPVPDFTIMKTEVPGSVTEYKVLALDSASILLMVQGTVIASTPTTQTPIPLQRGGVLFIGANESVSLKLTEPKDLLIFRACCLL [MPI]
[1]; cell cycle stage: G1/S
  melting temperature: 50.7 °C
[1]; cell cycle stage: mitosis
  melting temperature: 50.4 °C
[2]
  solubility in G1/S (log2): 0.389
[3]; [5]
  thermal stability score: -0.708
[3]; cell cycle stage: mitosis
  thermal stability score: -0.365
[4]
  solubility change mitosis (log2): -0.154

## MAAPSGGVNCEEFAEFQELLKVMRTIDDRIVHELNTTVPTASFAGKIDASQTCKQLYESLMAAHASRDRVIKNCIAQTSAVVKNLREEREKNLDDLTLLKQLRKEQTKLKWMQSELNVEEVVNDRSWKVFNERCRIHFKPPKNE [CCDC58]
[1]; cell cycle stage: G1/S
  melting temperature: 53.3 °C
[1]; cell cycle stage: mitosis
  melting temperature: 52.6 °C
[2]
  solubility in G1/S (log2): 0.6
[3]; [5]
  thermal stability score: -0.935
[3]; cell cycle stage: mitosis
  thermal stability score: -0.43
[4]
  solubility change mitosis (log2): 0.251

## MAAPSWRGARLVQSVLRVWQVGPHVARERVIPFSSLLGFQRRCVSCVAGSAFSGPRLASASRSNGQGSALDHFLGFSQPDSSVTPCVPAVSMNRDEQDVLLVHHPDMPENSRVLRVVLLGAPNAGKSTLSNQLLGRKVFPVSRKVHTTRCQALGVITEKETQVILLDTPGIISPGKQKRHHLELSLLEDPWKSMESADLVVVLVDVSDKWTRNQLSPQLLRCLTKYSQIPSVLVMNKVDCLKQKSVLLELTAALTEGVVNGKKLKMRQAFHSHPGTHCPSPAVKDPNTQSVGNPQRIGWPHFKEIFMLSALSQEDVKTLKQYLLTQAQPGPWEYHSAVLTSQTPEEICANIIREKLLEHLPQEVPYNVQQKTAVWEEGPGGELVIQQKLLVPKESYVKLLIGPKGHVISQIAQEAGHDLMDIFLCDVDIRLSVKLLK [ERAL1]
[1]; cell cycle stage: G1/S
  melting temperature: 51.2 °C
[1]; cell cycle stage: mitosis
  melting temperature: 50.9 °C
[2]
  solubility in G1/S (log2): 0.33
[3]; [5]
  thermal stability score: -1.87
[3]; cell cycle stage: mitosis
  thermal stability score: -1.48
[4]
  solubility change mitosis (log2): -0.061
